Data from patent US20220119450A1 (UNIVERSITY OF TARTU, published 2022).
No end group written: not given here. FAM = 5(6)-carboxyfluorescein; Ahx = NCCCCCC(=O)O

B1: PL5 peptide displayed on T7 phage (PPRRGLIKLKTSSNTKENSVVASLRP) (peptide)
peptide: PPRRGLIKLKTSSNTKENSVVASLRP
modifications: not fully specified (N-terminus); also: displayed on T7 phage capsid protein
notes: 26-aa peptide at the C-terminus of the T7 major capsid protein, arisen by a frameshift; also called PL5 phage
B2: PL3-functionalized silver nanoparticles (biotinylated PL3 peptide on NeutrAvidin-coated AgNPs) (peptide)
peptide: AGRGRLVR
modifications: not fully specified (N-terminus); also: biotinylated, site not given here, bound to NeutrAvidin on dye-labeled PEGylated silver nanoparticles
notes: Multivalent display on nanoparticles; also called PL3-AgNPs; AgNP-PL3
B3: synthetic FAM-labeled PL1 peptide (peptide)
peptide: {FAM-Ahx}-PPRRGLIKLKTS-OH
notes: Immobilized on ELISA plate and probed with His-tagged recombinant proteins; also called FAM-PL1

biological target: T1, recombinant His-tagged fibronectin extra domain B (FN-EDB); assay: binding specificity, T7 peptide phage
T1 construct: 112 amino acids, expressed in E. coli from pET28a+ with N-terminal His-tag; also called fibronectin EDB-domain
Protocol: (§1) To identify bispecific peptides that interact with both TNC-C and FN-EDB, cross screens were performed on both targets. During the first round of selection, microtiter plates coated with 20 μg/ml recombinant purified TNC-C were blocked with PBS containing 1% bovine serum albumin (BSA), followed by incubation with 5×10⁸ pfu of phages in PBS at 4° C. overnight, by washes to remove background, and by phage rescue and amplification in BLT5403 strain of E. coli (Novagen, EMD Biosciences, MA, USA) (Teesalu et al., Methods Enzymol. 503:35-56 (2012)). The following rounds of biopanning were carried on Ni-NTA Magnetic Agarose Beads (QIAGEN, Hilden, Germany) coated with hexahistidine-tagged FN-EDB (3 μg/μl beads) at room temperature. After 5 rounds of selection, a set of random clones was sequenced, and individual peptide-phage clones and control (G7 peptide-displaying or insertless) phages were incubated with FN-EDB and TNC-C-coated magnetic beads. RPARPAR phage (SEQ ID NO:5) and His-tagged NRP-1 b1b2 domain were used as positive control (Teesalu et al., Proc. Natl. Acad. Sci. U.S.A 106:16157-62 (2009)). To address the specificity of the peptide phage binding to the FN-EDB and TNC-C, the protein-coated beads were pre-incubated with 20 μg/ml blocking rabbit polyclonal antibodies.
(§2) Immobilized FAM-PL1 was probed with recombinant His-tagged EDB and TNC-C (or control BSA), followed by sequential incubation with rabbit anti-His-tag primary antibody, secondary goat anti-rabbit HRP antibody and a chromogenic peroxidase reaction.

Binder	binding result
B1	binds

Biological target: T2, recombinant His-tagged tenascin-C C domain (TNC-C)
T2 construct: 112 amino acids, expressed in E. coli from pET28a+ with N-terminal His-tag
T2 chain: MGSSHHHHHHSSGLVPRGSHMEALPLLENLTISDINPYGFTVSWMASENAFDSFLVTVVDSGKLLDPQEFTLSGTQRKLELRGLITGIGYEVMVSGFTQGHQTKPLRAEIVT
Assay: binding specificity, T7 peptide phage
Protocol: as §1, §2

Binder	binding result
B1	binds

Biological target: T2, recombinant His-tagged tenascin-C C …
Assay: T7 peptide phage binding to recombinant TNC-C, fold over control heptaglycine phage
Protocol: Throughout our screens, the phage recovered during a round of selection was amplified using plate amplification protocol (Teesalu et al., 2012). The 1st and 4th round of biopanning were performed on TNC-C immobilized on Costar 96-Well ELISA plate (#3590, Corning Life Sciences, Tewksbury, Mass., USA). Briefly, the multiwell plate was coated with 20 μg/ml recombinant TNC-C in 100 μl of PBS overnight at 4° C., followed by blocking with 1% bovine serum albumin (BSA) in PBS overnight at 4° C. The phage library solution (5×10⁸ pfu in 100 μl of PBS-BSA) were incubated overnight at 4° C., followed by 6 washes with PBS+1% BSA+0.1% Tween 20 to remove non-specifically bound background phages, and by phage rescue and amplification in E. coli strain BLT5403 (Novagen, EMD Biosciences, MA, USA) (Lingasamy, P. et al., Biomaterials 119373. 2019). The subsequent rounds of selection were performed on Ni-NTA Magnetic Agarose Beads (QIAGEN, Hilden, Germany) coated with His-6X tagged TNC-C (30 μg/10 μl beads) at room temperature for 1 hour in 400 μl of PBS. The TNC-C immobilized beads were washed three times with PBS+1% BSA+0.1% NP40, followed by incubation of previous round phage (5×10⁸ pfu in 100 μl of PBS+1% BSA+0.1% NP40) to TNC-C coated beads for 1 hour at room temperature. The unbound/weakly bound (background) phages were removed by rinsing six times with PBS+1% BSA+0.1% NP40, and the bound phages were eluted with 1 ml of PBS+500 mM Imidazole+0.1% NP40.
The recovered phage was tittered and amplified for a subsequent round of selection. […] RPARPAR phage on NRP-1-coated beads was used as a positive control (Teesalu et al., 2009). Phage clones displaying heptaglycine peptide (GGGGGGG, G7 (SEQ ID NO:20)) or insert less phage clones were used as negative controls.

Binder	TNC-C binding (fold G7 control phage) [fold]
VGRVRFSRKLAAALE [TNC-C-selected peptide phage clone 30, VGRVRFSRKLAAALE]	3700
AGVGRLRRAKLAAALE [TNC-C-selected peptide phage clone 1, AGVGRLRRAKLAAALE]	3260
GRLTRVR [TNC-C-selected peptide phage clone 46, GRLTRVR]	115
AGRGRLVRAKLAAALE [TNC-C-selected peptide phage clone 5, AGRGRLVRAKLAAALE]	5780
CSRRGILRAKPAAALE [TNC-C-selected peptide phage clone 4, CSRRGILRAKPAAALE]	4890
CRGVLRRAKLAAALE [TNC-C-selected peptide phage clone 2, CRGVLRRAKLAAALE]	5960
RGRLRRVE [TNC-C-selected peptide phage clone 44 (Seq ID No. 37)]	886
RRLVRVA [TNC-C-selected peptide phage clone 35, RRLVRVA]	1220
CQRMGVVGAKLAAALE [TNC-C-selected peptide phage clone 36, CQRMGVVGAKLAAALE]	3930
RGRLVRA [TNC-C-selected peptide phage clone 45, RGRLVRA]	737

biological target: T1, recombinant His-tagged fibronectin …; assay: T7 peptide phage binding to recombinant Fn-EDB, fold over heptaglycine (G7) control phage
Protocol: The first panning round were performed on Fn-EDB immobilized on Costar 96-Well enzyme-linked immunosorbent assay (ELISA) plate (#3590, Corning Life Sciences, Tewksbury, Mass., USA). The plate was coated with 20 μg/ml recombinant Fn-EDB in 100 μl of PBS overnight at 4° C., followed by blocking with 1% bovine serum albumin (BSA) in PBS overnight at 4° C. The phage library solution (5×10⁸ pfu in 100 μl of PBS-BSA) were incubated overnight at 4° C., followed by 6 wash with PBS+BSA+0.1% Tween 20 to remove non-specifically bound background phages, and by phage rescue and amplification in E. coli strain BLT5403 (Novagen, EMD Biosciences, MA, USA) (Teesalu et al., 2012). The consequent rounds of selection were performed on Ni-NTA Magnetic Agarose Beads (QIAGEN, Hilden, Germany) coated with His-6X tagged Fn-EDB (30 μg/10 μl beads) at room temperature for 1 hour in 400 μl of PBS. The Fn-EDB immobilized beads were washed three times with PBS+BSA+0.1% NP40, followed by incubation of previous round phage (5×10⁸ pfu in 100 μl of PBS+BSA+0.1% NP40) for 1 hour at room temperature. The unbound/weakly bound phage removed by rinsing six times with PBS+BSA+0.1% NP40, binding phage were eluted with 1 ml of PBS+500 mM Imidazole+0.1% NP40. The recovered phage was tittered and amplified for a subsequent round of selection.
For cell-free binding studies using individually amplified phage clones; phage was incubated with Fn-EDB coated magnetic beads as described above. RPARPAR phage on NRP-1-coated beads was used as a positive control (Teesalu et al., 2009), Nucleolin (NCL) and Tenascin C—C domain (TNC-C) were used as negative control. Phage clones displaying heptaglycine peptide (GGGGGGG, G7 (SEQ ID NO:20)) or insert less phage clones were used as negative controls.

Binder	Fold over G7 [fold]
GRRGRVIKLKTSEPPQ [Fn-EDB-selected peptide phage clone 4, GRRGRVIKLKTSEPPQ]	1180
TSKQNSR (also called phage PL2 peptide) [PL2 peptide displayed on T7 phage (TSKQNSR)]	89
RESRRGRVKLAAALE [Fn-EDB-selected peptide phage clone 33, RESRRGRVKLAAALE]	209
TKRKGKG [Fn-EDB-selected peptide phage clone 2, TKRKGKG]	58
VHERTRI [Fn-EDB-selected peptide phage clone 24, VHERTRI]	1
KVKKRGA [Fn-EDB-selected peptide phage clone 17, KVKKRGA]	44
GTRRRSRINLAAALE [Fn-EDB-selected peptide phage clone 10, GTRRRSRINLAAALE]	1560
GLGGRRIKLKTS [Fn-EDB-selected peptide phage clone 3, GLGGRRIKLKTS]	2060

biological target: T3, NRP-1 on NRP-1-positive cells (U87-MG glioma, PPC1 prostate carcinoma; U87-MG xenograft tumors) (UniProt O14786 22-923, limits assumed); assay: nanoparticle binding and uptake on cultured cells, confocal imaging
T3 construct: whole, on cells; in xenografts mouse NRP-1 is also present
Protocol: U87-MG, PPC1, and M21 cells cultured on glass coverslips were incubated with CF555-labeled AgNPs at 37° C. for 1 hour, followed by washing with medium to remove background AgNPs. Etching solution freshly diluted from 0.2 M stock solutions of Na₂S₂O₃ and K₃Fe(CN)₆ to 10 mM working concentration in PBS was applied to cells for 3 minutes, followed by PBS washes. The cells on coverslips were fixed with −20° C. methanol for 1 minute. The cell membrane was visualized by staining with Alexa Fluor 488-labeled wheat germ agglutinin (WGA) at 1:1000 at RT for 1 h. Nuclei were stained with 4′,6-diamidino-2-phenylindole (DAPI, Molecular Probes) at 1 μg/mL. Fluoromount-G (Electron Microscopy Sciences) medium was used to mount the coverslips on microscope slides for confocal imaging.
Many cultured tumor cell lines overexpress NRP-1 and internalize peptides with active CendR motif. The uptake of CF555-labeled PL3-AgNPs in NRP-1-positive U87-MG glioma and PPC1 prostate carcinoma cells, and in NRP-1-negative M21 melanoma cells was investigated. The dye-labeled AgNP cores are well suited for fluorescence imaging as the AgNP increases the brightness of the surface-bound dye by about an order of magnitude by plasmonic enhancement. The AgNPs labeled with CF647 dye were coated with neutravidin (NA) and PEGylated, creating a stable colloid ready for coating with biotinylated peptides. […]

T3 sequence (O14786 22-923 limits assumed): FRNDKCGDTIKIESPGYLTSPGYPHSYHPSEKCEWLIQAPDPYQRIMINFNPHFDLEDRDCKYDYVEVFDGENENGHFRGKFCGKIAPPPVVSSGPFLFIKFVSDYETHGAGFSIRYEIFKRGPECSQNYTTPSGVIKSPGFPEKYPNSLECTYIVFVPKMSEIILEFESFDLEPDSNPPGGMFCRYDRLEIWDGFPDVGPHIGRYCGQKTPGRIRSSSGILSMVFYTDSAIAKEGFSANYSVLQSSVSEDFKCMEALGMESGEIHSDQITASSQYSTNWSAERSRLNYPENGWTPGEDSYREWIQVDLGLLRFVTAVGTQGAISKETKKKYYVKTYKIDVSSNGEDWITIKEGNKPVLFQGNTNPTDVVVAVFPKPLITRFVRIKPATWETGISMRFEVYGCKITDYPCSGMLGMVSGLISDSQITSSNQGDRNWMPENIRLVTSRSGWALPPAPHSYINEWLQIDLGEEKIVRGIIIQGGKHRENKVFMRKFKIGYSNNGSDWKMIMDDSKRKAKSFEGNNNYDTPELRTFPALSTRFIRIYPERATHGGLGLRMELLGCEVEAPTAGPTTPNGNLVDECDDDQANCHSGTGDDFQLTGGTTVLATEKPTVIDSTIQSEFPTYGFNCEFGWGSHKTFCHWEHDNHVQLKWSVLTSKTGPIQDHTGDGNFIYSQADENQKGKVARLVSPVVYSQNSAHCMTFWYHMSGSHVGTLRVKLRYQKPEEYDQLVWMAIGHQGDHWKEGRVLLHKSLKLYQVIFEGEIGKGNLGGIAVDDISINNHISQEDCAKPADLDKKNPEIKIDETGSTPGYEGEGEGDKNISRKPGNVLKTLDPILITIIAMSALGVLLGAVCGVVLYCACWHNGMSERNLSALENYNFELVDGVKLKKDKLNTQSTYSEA

Binder	binding result
B2	binds

biological target: T1, recombinant His-tagged fibronectin …; assay: ELISA: immobilized FAM-PL1 probed with His-tagged protein, anti-His-tag antibody, HRP
Protocol: (§3) The FAM-labeled peptides were coated on ELISA plates (Nunc Maxisorp, Thermo Fisher Scientific Inc., MA, USA), blocked with PBS containing 1% BSA, and incubated with recombinant proteins at 2 μg/well in PBS for 6 h. The protein was detected using an anti-His-tag antibody, followed by horseradish peroxidase-conjugated secondary antibody, chromogenic reaction, and measurement of absorbance at 450 nm with a microplate reader (Tecan Austria GmbH, Grödig, Austria).
as §2

Binder	binding result
B3	binds

Biological target: T2, recombinant His-tagged tenascin-C C …
Assay: as above
Protocol: as §3, §2

Binder	binding result
B3	binds
